The DeepSol protein solubility set

Assay: soluble on expression in E. coli; label from the status in PepcDB or PDB records

Soluble on expression in E. coli, not soluble:
LKDFRYGIRLTGTTIKNEVISLGGKRIASGDIGAGKSVQMTEEGKPIKYFYGYNVIGIFQNEAQIKDYNERAAAATGNAGQQYQNNVGPGDLIYEDVDGDGYITANDRKDLGSPTPKFIGGLGISAFWKGFDLSIDFQGNFGNKIFNAKQVERFSGSDNWDRSFLDRWTPENPNTMTPRMTLEGNNYQVSSRYVESGSYVKLQTVELGYTFPKSWMQKVSVQNLRVYFSGNNLAYFTGYNGFTPEVLGGIDRQIYPVTATCRFGLNVTF, MGHHHHHHSHDNLSVPLMEEDLDGSSGVLFPFYDADTSMLYVVGKGDGNIRYYEVSADKPHLSYLTEYRSYNPQKGIGVMPKRGLDVSSCEIFRFYKLITTKSLIEPISMIVPRRSESYQEDIYPPTAGAQPSLTAQEWLSGMNRDPILVSLRPGSELLRPHPLPAERPIFNSMAPASPRLLNQTEKLAAEDGWRSS, MGSDKIHHHHHHMQWFENPLFSERVEFLESSQYWPAERHAVYQLRSLRRLVHHVAAHVPFYRDFMAASGIRPEDILSIEDIKRFPIIDKKVIQAQPEAFLADGSDRATLLHRTTGGSTGTPLTVWFDGDLLARDKANTEHYMRAIGLDIFTWKSIRLYGDKIDPEITDTGRYWKLVDGRRLVMSCYHITHETAPAYVAELNRFRPRYIHTRPSSILPLAKYILQDGLALDPIRTIVSDGEYLTDGQRAVIERAFQGRLYNIYGHTEACVVGHPCHHSDGLHLMPQVGVTELLDEQGRDVTEPGGRGELVVTGFNNPVMPLIRYRTGDVAYLGEGGCRCGRHYQMLKGIEGRLQDYVIDAAGNPTPLAPAVFNYNDMDWKGIKEFKVIQDTPGELTILIVLEAELAADPAGSKAVLEQRIGAILAGFRISITLVDDIPKTKIGKHRYLDQRLDVKELVSFR, MKRLNCRRKGIRVRILAIDTSNQTLSIAVCENQKILGSYTATVKRNHSLTLMPAIDYLMSQLNLAPTAIDRFVVAEGPGSYTGLRLGVTTAKTLAYTLKKELVGISSLQTLAANCVGQTGLIVPLFDARRKNVYAGAYRFVNGVWQNELPDQHISLRELLEQLKNEPNLFFVGEDVEKFTEEIAQIIPHGEICDVPQWQIPNAAVLAALGSVAEPVENVHGFLPAYLKKVEAEENWLKTHTPNGESYVEKLLEHHHHHH, MRSIVGDLLLLRLGDVAEGPMNQRLYRAIREAILDGAIAADTRLPATRDLAAELGIARNTVVHVYSQLQAEGYTHSRQGNGTFVTASLPDAYLASGRHARRPAIAAVRPTLSERGARIVDQVSASPYQWGAFMPGVPDLTEFPHQKFGRLFSTLWRNPHPEMLTYAYGGGLPALREALAQHLALTRSIDCDPEQIIITEGSHQAIDLATRILGGHGDLAWIENPGYWGARSVLIANGIRIEPLPVDEEGMQLPAEPVAQPPRFIFVTPSHQYPLGSVMSLARRRQLLALARSWGSWIIEDDYDSEFRFSGRPISSLQGLEPDAPVIYLGTFSKTLYPGLRVGYLVLPKALAGAFQAAHAELYREGHLVTHAVLASFIAEGHYAAHIRRMRMLYGRRRAILVNLIERRLGAQWLHPDSSDAGLHLVLDFPSGLDDKQVMQAAHARGVLTRALSRYYAEGTTPRQGLLLGYACVPENDIARKFELVLDSLAEVAQRSRA, MGSDKIHHHHHHMTARWRSANGRPAPTRVEVVSDSLTADDANRMASQGIAMLWQGDFHNARQILNAMDRRIGAGKKETAATPAEKFYRHRQSASHRARILGLLLIPLDPGPVVPLRRAPDIRQAAAGAYGDIGEPSVVSLHELVGAIGAHEWRRNGVYVDALEGRIHPHYGTFFPTRSEYVDLVAAAALPSDTLAFDVGTGTGVLAAVLARRGVRSVVATDNEPRAIACAAENFRNLGVQDRAEAVLTDMFPPGRAPLIVCNPPWIPATPHSSLDSAVYDPGSRMLFRFLNELSDHLEPGGEGWLVLSDLAEHLGLRSRGDLLAAIEAAGLKVVERLDTKPTHPKASDRDDPLFEARTAEVTSLWRLVPR

Soluble on expression in E. coli, soluble:
PVTSISHEQLQQVHAEAGLTIALSTSVGDDLFYVDHVSSEPEYAYLAENRLRRSLLRTSAGWLLLADREQRDIWAYLNSRPVADADYIEQFLYALEALRATGVCAAPGVAVEHGDGVSVALRERGRTIATLGVVGVRETIIERRDELAKICLRHAEEWGFR, MCPILWTRNGSHCYYFSMEKKDWNSSLKFCADKGSHLLTFPDNQGVKLFGEYLGQDFYWIGLRNIDGWRWEGGPALSLRILTNSLIQRCGAIHRNGLQASSCEVALQWICKKVLY
